The values that follow come from article doi:10.1101/2021.10.07.463531.

For the test, the target named is HA-Bicc1 with mutation D or with deletion of the KH tandem repeat. The experiment in a line: co-IP.

B1: GFP-Bicc1 (natural protein)
chain: MASQSEPGYLAAAQSDPGSNSERSTDSPVAGSEDDLVAAAPLLHSPEWSEERFRVDRKKLEAMLQAAAEGKGRSGEDFFQKIMEETNTQIAWPSKLKIGAKSKKDPHIKVSGKKEDVKEAKEMIMSVLDTKSNRVTLKMDVSHTEHSHVIGKGGNNIKKVMEDTGCHIHFPDSNRNNQAEKSNQVSIAGQPAGVESARARIRELLPLVLMFELPIAGILQPVPDPNTPSIQHISQTYSVSVSFKQRSRMYGATVTVRGSQNNTNAVKEGTAMLLEHLAGSLASAIPVSTQLDIAAQHHLFMMGRNGSNVKHIMQRTGAQIHFPDPSNPQKKSTVYLQGTIESVCLARQYLMGCLPLVLMFDMKEDIEVDPQVIAQLMEQLDVFISIKPKPKQPSKSVIVKSVERNALNMYEARKCLLGLESSGVSIATSLSPASCPAGLACPSLDILASAGLGLTGLGLLGPTTLSLNTSATPNSLLNALNTSVSPLQSSSSGTPSPTLWAPPIANTASATGFSTIPHLMLPSTAQATLTNILLSGVPTYGHTAPSPPPGLTPVDVHINSMQTEGKNISASINGHVQPANMKYGPLSTSSLGEKVLSSNHGDPSMQTAGPEQASPKSNSVEGCNDAFVEVGMPRSPSHSGNAGDLKQMLGASKVSCAKRQTVELLQGTKNSHLHGTDRLLSDPELSATESPLADKKAPGSERAAERAAAAQQKSERARLASQPTYVHMQAFDYEQKKLLATKAMLKKPVVTEVRTPTNTWSGLGFSKSMPAETIKELRRANHVSYKPTMTTAYEGSSLSLSRSSSREHLASGSESDNWRDRNGIGPMGHSEFSAPIGSPKRKQNKSREHYLSSSNYMDCISSLTGSNGCNLNSCFKGSDLPELFSKLGLGKYTDVFQQQEIDLQTFLTLTDQDLKELGITTFGARRKMLLAISELSKNRRKLFEPPNASCTSFLEGGASGRLPRQYHSDIASVSGRW
B1 displayed a percent reduction of co-immunoprecipitated GFP-Bicc1 relative to WT HA-Bicc1 of 60 to 75%.
